In article PMC6895269:
One block for each substance: values may come before it.

Experiments:
[1] = test system: Rtf1 HMD74-184 (histone modification domain) (Saccharomyces cerevisiae); assay: EMSA; conditions: 50 mM Tris-HCl pH 7.5, 150 mM NaCl, 2 mM arginine, 0.01% CHAPS, 0.01% NP-40, 1 uM BSA, 3 nM nucleosome, 30 min on ice, 4-12% Tris-glycine native PAGE
[2] = target: acidic patch mutant X. laevis nucleosome (H2A E61A, E64A, D90A, E92A) (X. laevis); assay: native gel or EMSA; 3 nM nucleosomes with increasing recombinant HMD, 30 min on ice, 50 mM Tris-HCl pH 7.5, 150 mM NaCl, 2 mM arginine, 0.01% CHAPS, 0.01% NP-40, 1 μM BSA; 4-12% native PAGE, SYBR Green; Kd by non-linear least squares regression
[3] = target: wild-type X. laevis nucleosome (X. laevis); assay: as above

Substance: acidic patch mutant X. laevis nucleosome (H2A E61A, E64A, D90A, E92A)
Kd ([1]; histone H2A E61A;E64A;D90A;E92A): 250 nM

Kd [2]: 250 nM | Kd [3]: 100 nM
Substance: recombinant HMD_(74-184) (Rtf1 histone modification domain) (from UniProt P53064 74-184) (domain or fragment)

Substance: wild-type X. laevis nucleosome
Kd ([1]; wild-type histone octamer): 100 nM
